# Test results: the nanobody polyreactivity screen of Harvey et al. (2022)
# Assay: yeast display, Sf9 membrane polyspecificity reagent, FACS + sequencing; frameworks hold sequencing errors
# Summary of the method: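 A nanobody's polyreactivity label depends on the gate it was sorted from. Yeast display cells were stained with 10% biotinylated, detergent-solubilized Sf9 membrane reagent for 1 hour at 4 °C, enriched on streptavidin microbeads and sorted by FACS. The low and high (top ~1%) gates were set on anti-HA fluorescence for expression and streptavidin fluorescence for reagent binding.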
row,Sequence,polyreactivity (PSR sort gate)
1,QFQLVESGGGLVQAGGSLRLSCAASARTFYRYAMGWYRQAPGKERELVASINRGGSTIYADSVKGRFSISRDNAKNTVYLHMNSLKPEDTAVFYCACYCYCYWGQGTQVTVSS,low polyreactivity
2,QVQLVESGGGLVQAGGSLRLSCAASGRIFPFYAMGWYRQAPGKERELVAAISSSGGSTYYADSVKGRFTISRDHAKNTVYFQMNSLKPEDTAVYYCAATRNSDGMGYWGQGTQVTVSS,low polyreactivity
3,QVQLVESGGGLAQAGGSLRLSCAASGLIFYYNAMGWYRQAPGKERELVAAISSSGGRTYYADSVKGRFTISRDNAKNTVYLQMNSLKPEDTAVYYCAATSYGYGSRYDYWGQGTQVTVSS,high polyreactivity
4,QVQLVESGGGLVQAGGSLRLSCAASGFTFNWYTMGWYRQAPGKERELVAAIRGSGSRTYYADSVKGRFTISRDNAKNTVYLQMNSLKPEDTAVYYCATDYGLYSTWGRYYRYRYDYWGQGTQVTVSS,high polyreactivity
5,QVQLVESGGGLVQAGGSLRLSCAASGRIFPSYAMGWYRQAPGKERELVAAISSSGGRTYYADSVKGRFTISRDNAKNTVYLQKNSLKPEDTAVYYCNARSPAYFYQWLYSFRYDYWGQGTQVTVSS,high polyreactivity
6,QVQIVESGGGLVQARGSIRFRCAASGRIIGTNTMGWYRQAPGKERELVAAITWSGGSTYYADSVKGRFTISRDKEKTTVYLQMYSLKPEDTAVYYCNVESEYAYHWPVDYWGQGTQVSVSS,low polyreactivity
7,QVQLGESGGGLVQAGGSLRLSCAASGRIFYLNVMGWYRQAPGKERELVAAITRRDVTTYADSVKGRFTISRDNAKNTVYLQMNSLKPEDTAVYYCNAVYYNWIGFDYWGQGTQVTVSS,low polyreactivity
8,QVQLLESGGGLVQAGGSLRLSCAPSGRIFGYYAMGWYRQEPGKERELVAAISRGGSTNYADSVKGRFTISRDNAKNTVYLQMNSLKPEDTAVYYCAALVYRSYNNYYWGQGTQVTVSS,high polyreactivity
9,QVQHVESGGGLVQAGGSLRLRCAASGFTFRRYALGWYRQAPGKERELVAAISGSGGSTYYADSVKGRFTISRDKAKNTVYLQMNSLKPEDTAVYYCNALLRAIAEYDYWGQGTQVTVSS,high polyreactivity
10,QVQRVESGGGLVQAGGSLRLSCAASGNTFKYNTMGWYRQAPGTERELVAAISSGGNTKYADSVKGRFTISRDNGKNTDYFQMNSLKPEDTAVNYCATTFPRKGRFRYDYWGQGTQVTVSS,high polyreactivity
11,QVQLVESGGGLVQAGGSLRLSCAASGSIFHPNAMGWYRQAPGKERELVAAITKSGGSTYYADSVKGRFTISRDNAKNTVYLQMNSLKPEDTAVYYCNALRYRRVGTLGYDYWGQGTQVTVSS,high polyreactivity
12,QVHLVESGGGLVQAGGRLRLSCDASGRTFKGYAMGWYRQAPGQERELGAAISFTGGSTYYADSVKGRFTISRDNAKNPVDLQMNSLKPEDTAVYYCNAVNYRGYGYWGQGTQVTVSS,high polyreactivity
13,QVQLVESGGGLVQAGGSLRLTCAASGFTFVINDMGWYRQAPGKERELVADITSGGDTYYADSVKGRFTISRDNAKNTVNFQMYSLKPEDTAVYYCAADIYPDWIYLLYGYWGQGTQVTVSS,low polyreactivity
14,QFQLVESGGGLVQAGGSLRLSCAAYGSIFMYYAMGWYIQAPGKERELVAAIRRGGNTNYADSVKGRFTISRDNAKNTVYLQMNSLKPEDTAVYYCAAAQYSRYSRVPNYYAGTYYYWGQGTQVTVSS,low polyreactivity
15,QVQLVETGGGLVQAGGSLRLSCAASGCIITYYAMGWYRPAPGKERELVAAITASGSRTYYADSVKGRFTISRDNAKNTVYLQMNSLKPEDTAVYDCASDNWQWYPSTWYDYWGQGTQVTVSS,high polyreactivity
16,QVQLEESGGGLVQAGGSLSLSCAASGSIFSNYAMGWYRQAPGKERELVAAIRISGGSTKYADSVKGRFTISRDNAKNTVYLQMNSLKPEDTAVYYCAAANSKRHRRYNYWGQGTQVTVSS,high polyreactivity
17,QVQLVESGGGLVQAGGSLRLSCAASGSTFVSNTMGWYRQAPGKERELVAAITWTGGRTYYADSVKGRFTISRDNAKNTVYLQMNSLKPEDTAVYYCAAVGTRKMYYWGQGTQVTVSS,high polyreactivity
18,QVQLVESVGGLVQAGGSLSLSCAASGSIFIYNARGWYRQAPGKERELVATISSGGSTTYADSVKGRFTISRDNAKNTVYLQMNSLKPEDTAVYYCATYDPPDQYFYLGYYYWGANDYWGQGTQVTVSS,low polyreactivity
19,QVQLVESGGGLVQAGGSLRLSCAASGSTFKDNAMGRYIQAPGKERELVARITYRGGRTYADSVKGRFTISRDNAKNTVYFQMNSLKPEDTAVYYCAARPSLYGHNSRYDYWGQGTQVTVSS,low polyreactivity
20,QVQLVESGGGLVQAGGSLRLSCAASGSTFQVYAMGWYRPAPRKERELVATIRRTGGSTYYADSVKGRFTISRDNAKNTVYLQMNSLKPEDTAVYYCAARTYGGIVLRLDYWGQGTQVTVSS,high polyreactivity
21,QVQLVESGGGLVHAGGSLRLSCAASGGTFVYNAMGWYRQAPGKERELVAVISKRGGSTYYADSVKGRFTISRDNAKNTVYLEMISLKPEDTAVYYCAVSYRSFRYYWERYYSWGQGTQVTVSS,high polyreactivity
22,QVQLVESGGGLVQAGGSLRLSCAAYGSIFRVYAMGWYRQAPGKEREFVAAITRRGTRTYYADSVKGRFTISRDNAKNTVYLQMNSLKPEDTAVYYCAAYFTDGLFEYWGQGTQVTVSS,low polyreactivity

row,Sequence,polyreactivity (PSR sort gate)
1,QVQLVESGGGLVQAGGSLRLSCAASGFTFTYYAMGWYRQAPGNERELVAAISSGGNTYYADSVKGRFTISRDNAKNTVYLQMNSLKPEDTAVYYCAAQYSKRAWSWTYAYSYFRFDYWGQGTQVTVSS,low polyreactivity
2,QVQLVESGGGLVQAGGSLRLSCAASGFTFDGYAMGWYRQAPVKERDLVAAISDSGDSTYYADSVKGRFTISRDNAKNTVYVQMNILKPEDTAVYYCNAEQWQSSEYGEWSKRDYWGQGTQVTVSS,low polyreactivity
3,QVQLVESVGGLVQAGGSLRLSCAASGITFDKYAMGWYRQATVKERELVAAISGSDGSTYYADSVKGRFTISRDNAKNNVYLQMNSLKPEDTAVYYCAAESEYAGTYEYDYWGQGTQVTVSS,low polyreactivity
4,QVQLVESGGGLVHAGGSLRLSCAASGRITTYYTMGRYRHAPGKERELVAAISWSGTSTYYADSVKGRFTISRDNAKNTVYLQMNSLKPEATAVYYCNAGWRYPLDSVTDDYWGQGTQVTVSS,high polyreactivity
5,QVQLVESGGGLVQAGGSLRLSCAASGSIFLRNAMGWSRQAPGKERELVAAISRSGGRTYYADSVKGRFTISRDNAKNTVYLQMNSLKPEDTAVYYCAADWADKYTGRYDYWGQGTQVTVSS,high polyreactivity
6,QVQLVESGGGLVQAGGSLRLSCAASGFTSWVYAMGWYRPAPGKERELVAAITWSTDDTYYADSVKGRFTISRDNSKNTVYIQINSLKPEDSAVYYCAAQQYTYVETWDGYDYWGQGTQVTVSS,low polyreactivity
7,QVQLVESGGGLVQAGGSLRLSCAASGRTFPYYTMGWYRQAPGKERELVAAINSSGGRTYYADSVKGRFTISRDNAKNTVYLQMNSLKPEDTAAYYCAKRGYYKYDWGQGTQVTVSS,high polyreactivity
8,QVHLVESGGGLVQAGGSLRLSCAASGRIFSWYTMGWYRQAPGKERELVAVITSGGTTKYADSVKGRFTISRDNAKNTVYLQMNSLKPEDTAVYYCNVAGRDYAVRWGSFDYWGQGTQVTVSS,low polyreactivity
9,QVQLVESGGGLVQAGGSLRLSCAASGSIFGSNAMGWYRQAPGKERELVAAITESGGDTYYADSVKGRFTISRDNAKNTVYLQMNSLKPEDTAVYYCAARYFGVIVDVSLFREYGSWGQGTQVTVSS,low polyreactivity
10,QVQLVESGGGLVQAGGSLRLSCAASGRTFTYNVMGWYRQAPGKERELVAAITSGGTNYADSVKGRFTISRDNAKNTVYLQMNSLKPEDTAVYYCATDYYDDVTIGYDYWGQGTQVTVSS,low polyreactivity
11,QVQLVESGGGLVQAGGSLRLSCAASGSIFYNYAMGWYRQAPGKERELVAAISQSGGSTRYADSVKGRFTISRDNAKNTVYVQMNSLKPEDTAVYYCAASRRKGQGSAGFGYWGQGTQVTVSS,high polyreactivity
12,QVQLVESGGGLVQAGGSLRLSCAASGYTFSFNAMGWYRQAPGKERELVAAINRGTSTNYADSVKGRFTISRDNAKNTVYLQMNSLKPEDTAVYYCAAGFRRSAGRYDLDYWGQGTQVTVSS,high polyreactivity
13,QVQLVESGGGLVQAGGSLRLTCAASGSIFWYNAMGWYRQAPGKERELVAAIKWSGGSTFYADSVKGGFTISRDTAKNNVYLQMNSLKPEDTAVYYCNAPPLYRDEFWGQGTQVTVSS,high polyreactivity
14,QVQLVESGGGLVQAGGSLRLSCAASGLTFIYNAMGWYRQAPGKERELVAAISGNGGDTYYADSVKGRFTISRDNAKNTVYLQMNSLKPEDTAVYYCAADYAYTPITWDEYWGQGTQVTVSS,low polyreactivity
15,QVQLVESGGGLVQAGGSLRLSCAASGFIFDTNAMGWSRQAPGKDRELVARISSSAGSTYYAVSVKGRFTISRDNAKNTVYLLMNSLKPEDTAVYYCNADTGLGSLDFDKRDYWGQGTQVTVSS,low polyreactivity
16,QVQLVESGGGLVQAGGSLRLSCAASGITFAFYDMGWYRQAPGKERELVAAISYSGGGTYYADSVKGRFTISRDNAKNTVYLQMNSLKPEDTAVYYCAADPKTHALFGEDYWGQGTQVTVSS,low polyreactivity
17,QVQLVESGGGLVQAGGSLRLSCAASGLIFYFNAIGWYRQAPGKERELVASITRTGSTNYADSVKGRFTISRDNAKNTVYLHMNRLKPEYTAVYYCSAPWTQILDYWGQGTQVTVSS,low polyreactivity
18,QVQLVDSGGGLVQAGGSLRLSCAASGSNFVWYAMGWYIQAPGKEREMVAAITWSGGSTYYADSVKGRFTISRDNAKNTVYLPMNSLKPEDSAVYYFNAVSYRYYSKLGSWGQGTQVTLSS,high polyreactivity
19,QVQLVESGGGLVQAGGSLRLSCAASGFTFTYNAMGWYRQAPGKERELVARIRWSTGSTYYADSVKGRFTISRDNAKKTVYLQMNSLKPEDTAVYYCAADGYGWGGSGWQYPHGFGYWGQGTQVTVSS,low polyreactivity
20,QVQLVESGGGLVQAGGSLRLSCAASGSTSRTYAMGWYRQAPAKERELVAASSSSGGRTYYADSVKGRFTISRDNAKNTVYLQMNSMKPEDTAVYYCNARTYSYRGYNYWGQGTQVTVSS,high polyreactivity
21,QVQLVESGGGLVQAGGSLRLTCAASGRIFGAYTMGWYRQEPGKERELVAAISWSGGRTYYADSVKGRFTISRDNAKNTFYLQLNSLNAEDTAVYYCNVRRQSGRYRVYEYDYWGQGTQVTVSS,low polyreactivity
